Test results as given in patent US20230235068A1.

Target: extracellular domain portion of LEPR protein expressed with a C-terminal human Fc tag (human)
Assay: competition ELISA, 10 nM hLEPR-hFc binding to coated hLeptin; soluble hLeptin as competitor

Sequence of extracellular domain portion of LEPR protein expressed with a C-terminal human Fc tag (human) (chain, as listed by the source limits assumed): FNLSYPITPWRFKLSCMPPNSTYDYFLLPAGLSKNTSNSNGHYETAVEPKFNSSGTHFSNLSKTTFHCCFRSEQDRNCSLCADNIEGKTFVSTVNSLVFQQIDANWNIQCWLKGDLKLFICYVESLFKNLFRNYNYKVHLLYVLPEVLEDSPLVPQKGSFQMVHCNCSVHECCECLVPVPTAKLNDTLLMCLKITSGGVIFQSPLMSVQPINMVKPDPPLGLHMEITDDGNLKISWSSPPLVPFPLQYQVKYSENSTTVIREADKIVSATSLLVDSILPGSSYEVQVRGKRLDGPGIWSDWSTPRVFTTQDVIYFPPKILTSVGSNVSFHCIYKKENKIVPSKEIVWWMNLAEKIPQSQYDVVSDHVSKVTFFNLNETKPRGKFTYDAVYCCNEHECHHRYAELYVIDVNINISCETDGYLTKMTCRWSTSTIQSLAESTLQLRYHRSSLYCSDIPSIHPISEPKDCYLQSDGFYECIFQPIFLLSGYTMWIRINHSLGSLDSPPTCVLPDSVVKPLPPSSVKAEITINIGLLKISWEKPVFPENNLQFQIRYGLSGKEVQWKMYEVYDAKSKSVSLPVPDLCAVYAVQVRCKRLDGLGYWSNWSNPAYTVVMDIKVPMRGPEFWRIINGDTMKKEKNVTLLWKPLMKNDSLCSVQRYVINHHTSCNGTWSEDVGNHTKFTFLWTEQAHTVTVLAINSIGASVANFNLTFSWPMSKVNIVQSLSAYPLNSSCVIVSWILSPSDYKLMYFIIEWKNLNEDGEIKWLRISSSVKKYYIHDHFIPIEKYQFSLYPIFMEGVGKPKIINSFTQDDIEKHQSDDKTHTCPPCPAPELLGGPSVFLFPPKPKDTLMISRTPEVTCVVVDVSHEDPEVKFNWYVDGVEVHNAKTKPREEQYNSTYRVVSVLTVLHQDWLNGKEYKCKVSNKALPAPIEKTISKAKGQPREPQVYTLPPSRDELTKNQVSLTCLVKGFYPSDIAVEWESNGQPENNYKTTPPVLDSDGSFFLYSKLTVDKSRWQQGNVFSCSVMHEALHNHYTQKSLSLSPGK

% blockade at 500 nM: 99%
Substance: human Leptin (from UniProt P41159 22-167) (ligand)
